For the assay, the target named is T1, nSR100 (Mus musculus, UniProt Q8BKA3).
T1 construct: host or cells: mouse N2A cells
T1 sequence (Q8BKA3 1-608): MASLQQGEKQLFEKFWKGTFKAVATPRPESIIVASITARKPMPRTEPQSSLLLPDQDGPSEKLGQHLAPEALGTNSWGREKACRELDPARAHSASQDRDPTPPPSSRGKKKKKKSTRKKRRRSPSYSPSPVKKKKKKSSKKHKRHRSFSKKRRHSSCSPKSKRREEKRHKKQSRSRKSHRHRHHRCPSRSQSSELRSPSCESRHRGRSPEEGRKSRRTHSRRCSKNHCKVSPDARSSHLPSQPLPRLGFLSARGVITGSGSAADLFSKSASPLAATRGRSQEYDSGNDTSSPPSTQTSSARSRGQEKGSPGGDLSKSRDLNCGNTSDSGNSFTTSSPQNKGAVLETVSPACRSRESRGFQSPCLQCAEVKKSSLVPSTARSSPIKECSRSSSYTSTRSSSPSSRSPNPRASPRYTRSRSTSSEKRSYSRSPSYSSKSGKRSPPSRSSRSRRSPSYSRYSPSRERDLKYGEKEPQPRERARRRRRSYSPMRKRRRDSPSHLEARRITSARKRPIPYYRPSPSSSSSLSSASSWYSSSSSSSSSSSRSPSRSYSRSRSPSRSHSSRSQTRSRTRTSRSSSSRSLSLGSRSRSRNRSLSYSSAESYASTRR
As to the kind of experiment: AP-MS nSR100 interaction partners from mouse N2A cells (Table 5). It counts as binding. The settings on record: for AvgP (average of the SAINT scores) / MaxP (maximal SAINT score): bait Srrm4; for FoldChange between the prey Avg spectra of the bait and control purifications: bait Srrm4, 0.1 added to prevent division by 0; for AvgSpec (average number of spectra per replicate): bait Srrm4, 2 replicates; for Spectra (number of spectra for the prey in the purification of the bait): AP-MS; for SpecSum: bait Srrm4, sum of spectra over 2 replicates.

[1] abbreviates: bait Srrm4, biological replicate 1 (first number of the cell).
Setting [2] is: bait Srrm4, biological replicate 2 (second number of the cell).

Source text: By applying affinity purification coupled to mass-spectrometry (AP-MS), several interaction nSR100 partner proteins were detected that provide insight into mechanisms of post-translational regulation of nSR100 levels.

B1: Api5 (protein, UniProt O35841 1-504, looked up)
Apoptosis inhibitor 5: MPTVEELYRNYGILADATEQVGQHKDAYQVILDGVKGGTKEKRLAAQFIPKFFKHFPELADSAINAQLDLCEDEDVSIRRQAIKELPQFATGENLPRVADILTQLLQTDDSAEFNLVNNALLSIFKMDAKGTLGGLFSQILQGEDIVRERAIKFLSTKLKTLPDEVLTKEVEELILTESKKVLEDVTGEEFVLFMKILSGLKSLQTVSGRQQLVELVAEQADLEQAFSPSDPDCVDRLLQCTRQAVPLFSKNVHSTRFVTYFCEQVLPNLSTLTTPVEGLDIQLEVLKLLAEMSSFCGDMEKLETNLRKLFDKLLEYMPLPPEEAENGENAGNEEPKLQFSYVECLLYSFHQLGRKLPDFLTAKLNAEKLKDFKIRLQYFARGLQVYIRQLRLALQGKTGEALKTEENKIKVVALKITNNINVLIKDLFHIPPSYKSTVTLSWKPVQKVEIGQKRTSEDTSSGSPPKKSPGGPKRDARQIYNPPSGKYSSNLSNFNYERSLQGK
On to B1, for which the “AvgP (average of the SAINT scores)” value worked out at 1; the “MaxP (maximal SAINT score)” value amounted to 1; the “FoldChange between the prey Avg spectra of the bait and control purifications” value (“FoldChange between the prey Avg spectra” for short) amounted to 18; the “AvgSpec (average number of spectra per replicate)” value turned out to be 9. The SpecSum was 18. Moreover, the “Spectra (number of spectra for the prey in the purification of the bait)” value under setting [1] worked out at 8. In addition, the “Spectra (number of spectra for the prey in the purification of the bait)” value under setting [2] is 10.

B2: Cdc37 (protein, UniProt Q61081 1-379, looked up)
Hsp90 co-chaperone Cdc37: MVDYSVWDHIEVSDDEDETHPNIDTASLFRWRHQARVERMEQFQKEKEELDRGCRECKRKVAECQRKLKELEVAESDGQVELERLRAEAQQLRKEERSWEQKLEDMRKKEKNMPWNVDTLSKDGFSKSMVNTKPEKAEEDSEEAREQKHKTFVEKYEKQIKHFGMLHRWDDSQKYLSDNVHLVCEETANYLVIWCIDLEVEEKCALMEQVAHQTMVMQFILELAKSLKVDPRACFRQFFTKIKTADHQYMEGFKYELEAFKERVRGRAKLRIEKAMKEYEEEERKKRLGPGGLDPVEVYESLPEELQKCFDVKDVQMLQDAISKMDPTDAKYHMQRCIDSGLWVPNSKSGEAKEGEEAGPGDPLLEAVPKAGNEKDVSA
As to B2, the “AvgP (average of the SAINT scores)” value is given as 1; the “MaxP (maximal SAINT score)” value is reported as 1; the “FoldChange between the prey Avg spectra” value came out at 4.61; the “AvgSpec (average number of spectra per replicate)” value was 53. The molecule also came in with a SpecSum of 106. Moreover, the “Spectra (number of spectra for the prey in the purification of the bait)” value under setting [1] came to 58. Besides, the “Spectra (number of spectra for the prey in the purification of the bait)” value under setting [2] worked out at 48.

B3: Snrpa (protein, UniProt Q62189 1-287, looked up)
U1 small nuclear …: MATIATMPVPETRANHTIYINNLNEKIKKDELKKSLYAIFSQFGQILDILVSRIMKMRGQAFVIFKEVTSATNALRSMQGFPFYDKPMRIQYAKTDSDIIAKMKGTYVERDRKREKRKPKSQETPAAKKAVQGGAAAPVVGAVQPVPGMPPMPQAPRIMHHMPGQPPYMPPPGMIPPPGLAPGQIPPGAMPPQQLMPGQMPPAQPLSENPPNHILFLTNLPEETNELMLSMLFNQFPGFKEVRLVPGRHDIAFVEFDNEVQAGAARDALQGFKITQNNAMKISFAKK
B3: the “AvgP (average of the SAINT scores)” value amounted to 1; the “MaxP (maximal SAINT score)” value was determined as 1; the “FoldChange between the prey Avg spectra” value turned out to be 7.09; the “AvgSpec (average number of spectra per replicate)” value worked out at 39. Also, the SpecSum was found to be 78. Besides, the “Spectra (number of spectra for the prey in the purification of the bait)” value under setting [1] was determined as 38. For the same molecule, the “Spectra (number of spectra for the prey in the purification of the bait)” value under setting [2] was found to be 40.

B4: Gsk3b (protein, UniProt Q9WV60 1-420, looked up)
Glycogen synthase kinase-3 …: MSGRPRTTSFAESCKPVQQPSAFGSMKVSRDKDGSKVTTVVATPGQGPDRPQEVSYTDTKVIGNGSFGVVYQAKLCDSGELVAIKKVLQDKRFKNRELQIMRKLDHCNIVRLRYFFYSSGEKKDEVYLNLVLDYVPETVYRVARHYSRAKQTLPVIYVKLYMYQLFRSLAYIHSFGICHRDIKPQNLLLDPDTAVLKLCDFGSAKQLVRGEPNVSYICSRYYRAPELIFGATDYTSSIDVWSAGCVLAELLLGQPIFPGDSGVDQLVEIIKVLGTPTREQIREMNPNYTEFKFPQIKAHPWTKVFRPRTPPEAIALCSRLLEYTPTARLTPLEACAHSFFDELRDPNVKLPNGRDTPALFNFTTQELSSNPPLATILIPPHARIQAAASPPANATAASDTNAGDRGQTNNAASASASNST
With B4, the “AvgP (average of the SAINT scores)” value turned out to be 1; the “MaxP (maximal SAINT score)” value is on record as 1; the “FoldChange between the prey Avg spectra” value stood at 65; the “AvgSpec (average number of spectra per replicate)” value turned out to be 6.5. Further, the SpecSum came to 13. Also, the “Spectra (number of spectra for the prey in the purification of the bait)” value under setting [1] worked out at 6. The “Spectra (number of spectra for the prey in the purification of the bait)” value under setting [2] was determined as 7.

B5: Acin1 (protein, UniProt Q9JIX8 1-1338, looked up)
Apoptotic chromatin …: MWGRKRPNSSGETRGILSGNRGVDYGSGRGQSGPFEGRWRKLPKMPEAVGTDPSTSRKMAELEEVTLDGKPLQALRVTDLKAALEQRGLAKSGQKSALVKRLKGALMLENLQKHSTPHAAFQPNSQIGEEMSQNSFIKQYLEKQQELLRQRLEREAREAAELEEASAESEDEMTHPEGVASLLPPDFQSSLNRPELELSTHSPRKSSSFSEEKGESDDEKPRKGERRSSRVRQAKSKLPEYSQTAEEEEDQETPSRNLRVRADRNLKIEEEEEEEEEEEDDDDEEEEEVDEAQKSREAEAPTLKQFEDEEGEERTRAKPEKVVDEKPLNIRSQEKGELEKGGRVTRSQEEARRSHLARQQQEKETQIVSLPQEENEVKSSQSLEEKSQSPSPPPLPEDLEKAPVVLQPEQIVSEEETPPPLLTKEASSPPTHIQLQEEMEPVEGPAPPVLIQLSPPNTDAGAREPLASPHPAQLLRSLSPLSGTTDTKAESPAGRVSDESVLPLAQKSSLPECSTQKGVESEREKSAPLPLTVEEFAPAKGITEEPMKKQSLEQKEGRRASHALFPEHSGKQSADSSSSRSSSPSSSSSPSRSPSPDSVASRPQSSPGSKQRDGAQARVHANPHERPKMGSRSTSESRSRSRSRSRSASSSSRKSLSPGVSRDSNTSYTETKDPSCGQEAAAPSGPQLQVLEPKEKAPTFSASVRGRHLSHPEPEQQHVIQRLQPEQGSPKKCEAEEAEPPAATQPQTSETQISHLLESERTHHTVEEKEEVTMDTSENRPENEVPEPPLPVADQVSNDERPEGGAEEEEKKESSMPKSFKRKISVVSATKGVQAGNSDTEGGQPGRKRRWGASTAATQKKPSISITTESLKSLIPDIKPLAGQEAVVDLHADDSRISEDETERNGDDGTHDKGLKICRTVTQVVPAEGQENGQREEEEEKEPEAELPAPPQVSVEVALPPPVEHEVKKVTLGDTLTRRSISQQKSGVSITIDDPVRTAQVPSPPRGKISNIVHISNLVRPFTLGQLKELLGRTGTLVEEAFWIDKIKSHCFVTYSTVEEAVATRTALHGVKWPQSNPKFLCADYAEQDELDYHRGLLVDRPSETKAEEQGAPRPLHPPPPPPVQPPPHPRAEQREQERAVREQWAEREREMERRERTRSEREWDRDKVREGPRSRSRSRDRRRKERAKSKEKKSEKKEKAQEEPPAKLLDDLFRKTKAAPCIYWLPLTESQIVQKEAEQAERAKEREKRRKEREEEEQKEREKEAERERNRQLEREKRREHSRERERDRERERDRGDRERERERDRDRGRERDRRDTKRHSRSRSRSTPVRDRGGRR
Regarding B5, the “AvgP (average of the SAINT scores)” value came out at 1; the “MaxP (maximal SAINT score)” value worked out at 1; the “FoldChange between the prey Avg spectra” value is recorded as 250; the “AvgSpec (average number of spectra per replicate)” value is 25. For the same molecule, the SpecSum amounted to 50. For the same molecule, the “Spectra (number of spectra for the prey in the purification of the bait)” value under setting [1] came to 23. The “Spectra (number of spectra for the prey in the purification of the bait)” value under setting [2] is reported as 27.

B6: U2af2 (protein, UniProt P26369 2-475, looked up)
Splicing factor U2AF 65 kDa …: SDFDEFERQLNENKQERDKENRHRKRSHSRSRSRDRKRRSRSRDRRNRDQRSASRDRRRRSKPLTRGAKEEHGGLIRSPRHEKKKKVRKYWDVPPPGFEHITPMQYKAMQAAGQIPATALLPTMTPDGLAVTPTPVPVVGSQMTRQARRLYVGNIPFGITEEAMMDFFNAQMRLGGLTQAPGNPVLAVQINQDKNFAFLEFRSVDETTQAMAFDGIIFQGQSLKIRRPHDYQPLPGMSENPSVYVPGVVSTVVPDSAHKLFIGGLPNYLNDDQVKELLTSFGPLKAFNLVKDSATGLSKGYAFCEYVDINVTDQAIAGLNGMQLGDKKLLVQRASVGAKNATLVSLPSTINQTPVTLQVPGLMSSQVQMGGHPTEVLCLMNMVLPEELLDDEEYEEIVEDVRDECSKYGLVKSIEIPRPVDGVEVPGCGKIFVEFTSVFDCQKAMQGLTGRKFANRVVVTKYCDPDSYHRRDFW
Regarding B6, the “AvgP (average of the SAINT scores)” value is given as 1; the “MaxP (maximal SAINT score)” value is on record as 1; the “FoldChange between the prey Avg spectra” value was 4.83; the “AvgSpec (average number of spectra per replicate)” value is given as 111. The same molecule registered a SpecSum of 222. Also, under setting [1], the “Spectra (number of spectra for the prey in the purification of the bait)” value came to 108. Also, under setting [2], the “Spectra (number of spectra for the prey in the purification of the bait)” value stood at 114.

B7: P00761 (protein, UniProt P00761 1-231, looked up)
chain: FPTDDDDKIVGGYTCAANSIPYQVSLNSGSHFCGGSLINSQWVVSAAHCYKSRIQVRLGEHNIDVLEGNEQFINAAKIITHPNFNGNTLDNDIMLIKLSSPATLNSRVATVSLPRSCAAAGTECLISGWGNTKSSGSSYPSLLQCLKAPVLSDSSCKSSYPGQITGNMICVGFLEGGKDSCQGDSGGPVVCNGQLQGIVSWGYGCAQKNKPGVYTKVCNYVNWIQQTIAAN
modifications: full-length
Take B7: the “AvgP (average of the SAINT scores)” value stood at 1; the “MaxP (maximal SAINT score)” value amounted to 1; the “FoldChange between the prey Avg spectra” value came out at 150; the “AvgSpec (average number of spectra per replicate)” value is given as 15. Besides, the SpecSum is on record as 30. Further, the “Spectra (number of spectra for the prey in the purification of the bait)” value under setting [1] is recorded as 15|15. Moreover, the “Spectra (number of spectra for the prey in the purification of the bait)” value under setting [2] is on record as 15|15.

(Values after patent publication US10772928B2, “Modulation and detection of a neuronal alternative splicing regulatory network for treatment and diagnosis of neurological disorders” (The Governing Council of the University of Toronto, priority 2014, dated 2020).)
